Test results published in FireProtDB (doi:10.1021/bi201411c).

B1: Cyanovirin-N, P81180 (parent)
chain: LGKFSQTCYNSAIQGSVLTSTCERTNGGYNTSSIDLNSVIENVDGSLKWQPSNFIETCRNTQLAGSSELAAECKTRAQQFVSTKINLDDHIANIDGTLKYE

Variants of: B1
Details: Nostoc ellipsosporum, pH 6, sodium phosphate 20 mM, transition: 2, reversible: yes(90%), structure 1IIY, whole UniProt chain shown; for denaturant m value / denaturant midpoint (higher = more stable): 25 °C, GdnHCl; for Tm / change of melting temperature, mutant - wild type (higher = more stable): Thermal

| Variant | denaturant m value (CD) [kcal/mol/M] | denaturant midpoint (higher = more stable) (CD) [M] | denaturant m value (fluorescence) [kcal/mol/M] | denaturant midpoint (higher = more stable) (fluorescence) [M] | Tm (CD) [°C] | change of melting temperature, mutant - wild type (higher = more stable) (CD) [°C] |
| --- | --- | --- | --- | --- | --- | --- |
| P51G | 2.5 | 2.2 | 2.6 | 2.3 | 64.3 | -2.3 |
| P51G S11I S20A | 2 | 3.1 |  |  |  |  |
| P51G S11V S20A T61V | 1.7 | 2.9 | 2.1 | 3 | 74.5 | 7.9 |
| P51G S11V S20A | 2.6 | 2.8 | 2.6 | 2.8 | 69.8 | 3.2 |
| P51G S11A S20A | 2.4 | 2.5 |  |  | 69.6 | 3 |
| P51G S11A S20A T61I | 1.7 | 3.3 | 2.1 | 3.5 | 75.8 | 9.2 |
